Measured values taken from patent US6638518B1 (priority 1999, dated 2003).
Like-named read-outs stand apart in the source and are kept apart here.

B1: FAP-A: Fibronectin attachment protein produced by M. avium (SEQ ID NO:5, GenBank AAB50543), recombinant fusion protein (protein, listed as Mycobacterium avium)
chain: MDQVEATSTRRKGLWTTLAITTVSGASAVVIALPETSHADPEVPTPVPPSTATTPHPRRRRIPGQPADNAQAGAPAPAPNGQQRPPRRRRMIPTRAPPPAGAPPNGAPPAAPNGAPPPPVDPNAPPPPPADPNAGRIPNSYVLPAGWVESDASHLDYGSALLSKVTGPPPMPDQPPPVANDTRIVMGRVDQKLYASAEANNAKAAVGLGSDMGEFFMPYPGTRINQDSTPLNGANGSTGSASYYEVKFSDASKPNGQIWTGVIGSANAGNRQRWFVVWLGTSNDPVDKVAAKALAESIQAWTPPPAPPAAPGGPGAPAPGAPGAPAPGAPAAPGVTAPAAPAPAAPGAPAAPGAPAPEPGQAPAVEVSPTPTPTPQQTLSA
modifications: recombinant fusion partner

Tests used:
human fibronectin = target: T1, human fibronectin (Homo sapiens, UniProt P02751); test: Attachment of FAP to fibronectin (biotinylated fusion proteins on coated wells); assay type: binding
T1 construct: purchased Collaborative Biomedical Products, Bedford, Mass
T1 sequence (P02751 32-2477): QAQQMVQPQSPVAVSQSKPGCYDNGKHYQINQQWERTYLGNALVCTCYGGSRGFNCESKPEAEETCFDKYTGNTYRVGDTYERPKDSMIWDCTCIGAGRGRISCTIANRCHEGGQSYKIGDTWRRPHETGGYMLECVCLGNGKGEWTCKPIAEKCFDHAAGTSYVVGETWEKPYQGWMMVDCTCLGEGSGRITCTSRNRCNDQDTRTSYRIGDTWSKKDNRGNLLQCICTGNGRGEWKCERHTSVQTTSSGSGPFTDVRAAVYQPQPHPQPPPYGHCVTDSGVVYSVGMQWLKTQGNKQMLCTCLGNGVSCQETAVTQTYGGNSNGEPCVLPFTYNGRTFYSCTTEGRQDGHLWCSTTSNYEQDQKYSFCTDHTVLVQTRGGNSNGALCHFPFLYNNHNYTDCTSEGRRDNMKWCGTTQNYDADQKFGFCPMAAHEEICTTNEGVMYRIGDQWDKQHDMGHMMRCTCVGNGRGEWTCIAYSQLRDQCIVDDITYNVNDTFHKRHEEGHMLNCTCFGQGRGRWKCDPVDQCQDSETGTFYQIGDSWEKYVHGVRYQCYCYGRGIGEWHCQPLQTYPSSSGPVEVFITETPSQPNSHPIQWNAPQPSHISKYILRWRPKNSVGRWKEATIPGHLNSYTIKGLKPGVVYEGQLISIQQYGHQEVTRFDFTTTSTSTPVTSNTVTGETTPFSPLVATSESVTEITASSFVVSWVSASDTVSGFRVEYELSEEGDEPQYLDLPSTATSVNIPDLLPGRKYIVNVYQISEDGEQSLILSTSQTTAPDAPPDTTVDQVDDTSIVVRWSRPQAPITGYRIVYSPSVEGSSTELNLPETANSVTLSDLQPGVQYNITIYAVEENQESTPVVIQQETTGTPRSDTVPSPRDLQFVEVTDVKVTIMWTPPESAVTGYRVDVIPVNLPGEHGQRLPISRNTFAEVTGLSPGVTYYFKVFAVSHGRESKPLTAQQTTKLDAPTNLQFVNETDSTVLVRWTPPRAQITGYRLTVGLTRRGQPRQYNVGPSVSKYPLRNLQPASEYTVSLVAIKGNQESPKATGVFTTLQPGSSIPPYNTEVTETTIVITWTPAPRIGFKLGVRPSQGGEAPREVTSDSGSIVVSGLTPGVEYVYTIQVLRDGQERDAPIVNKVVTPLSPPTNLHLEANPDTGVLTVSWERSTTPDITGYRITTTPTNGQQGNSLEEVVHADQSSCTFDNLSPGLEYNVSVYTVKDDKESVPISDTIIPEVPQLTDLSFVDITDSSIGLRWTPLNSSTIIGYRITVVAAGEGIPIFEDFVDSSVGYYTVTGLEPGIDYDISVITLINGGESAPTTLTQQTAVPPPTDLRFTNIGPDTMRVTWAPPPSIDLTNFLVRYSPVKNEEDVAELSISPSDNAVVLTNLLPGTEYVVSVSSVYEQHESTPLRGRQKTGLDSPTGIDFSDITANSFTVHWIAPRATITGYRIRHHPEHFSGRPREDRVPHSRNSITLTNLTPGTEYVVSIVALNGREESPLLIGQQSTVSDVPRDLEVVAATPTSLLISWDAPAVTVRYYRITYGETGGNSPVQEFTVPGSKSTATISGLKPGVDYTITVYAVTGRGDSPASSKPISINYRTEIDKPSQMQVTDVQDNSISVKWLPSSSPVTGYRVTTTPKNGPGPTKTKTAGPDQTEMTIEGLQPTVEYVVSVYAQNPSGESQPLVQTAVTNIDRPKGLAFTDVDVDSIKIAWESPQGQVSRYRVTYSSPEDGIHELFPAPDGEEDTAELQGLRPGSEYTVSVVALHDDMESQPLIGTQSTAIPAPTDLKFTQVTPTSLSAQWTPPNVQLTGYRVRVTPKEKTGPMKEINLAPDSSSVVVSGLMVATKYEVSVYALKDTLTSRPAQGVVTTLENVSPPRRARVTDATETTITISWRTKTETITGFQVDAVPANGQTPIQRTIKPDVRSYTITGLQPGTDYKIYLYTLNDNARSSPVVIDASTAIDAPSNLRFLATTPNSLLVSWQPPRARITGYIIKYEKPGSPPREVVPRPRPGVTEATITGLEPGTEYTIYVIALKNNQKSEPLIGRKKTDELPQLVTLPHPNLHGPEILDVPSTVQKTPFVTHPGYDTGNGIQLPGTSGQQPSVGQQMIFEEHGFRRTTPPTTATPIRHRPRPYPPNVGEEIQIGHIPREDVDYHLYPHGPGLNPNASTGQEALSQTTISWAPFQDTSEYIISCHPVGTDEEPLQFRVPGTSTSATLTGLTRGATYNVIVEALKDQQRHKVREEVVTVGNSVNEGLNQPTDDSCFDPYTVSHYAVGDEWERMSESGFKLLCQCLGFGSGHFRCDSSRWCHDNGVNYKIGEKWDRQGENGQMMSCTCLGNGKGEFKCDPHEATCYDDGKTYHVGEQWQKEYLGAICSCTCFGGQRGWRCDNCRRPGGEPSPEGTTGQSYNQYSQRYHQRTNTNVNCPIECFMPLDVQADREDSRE
Protocol: Ninety-six-well Immulon II plates (Dynatech, Chantilly, Va.) were coated with 1 μg of human fibronectin (Collaborative Biomedical Products, Bedford, Mass.) or bovine serum albumin (BSA) at 37° C. overnight. Recombinant FAP-B, FAP-A, and β-galactosidase fusion proteins were produced in the pTrcHis vector and purified as described for FAP-B, were biotinylated with NHS-LC-Biotin (Pierce, Rockford, Ill.). Biotinylated FAP-B, FAP-A and β-galactasidase fusion proteins (0.5 μg and 2 μg) were added to wells coated with fibronectin or BSA and incubated at 25° C. for 1 hour. The bound fusion proteins were detected with streptavidin-HRP (1:10,000 dilution; Pierce) and o-phenylenediamine dihydrochloride (Sigma) substrate.

[1] = system: BCG attachment to fibronectin; assay type: binding, M. bovis BCG; conditions: recombinant FAP 1 μM or peptide, 90 minutes, 37° C.; FIG. 4

Molecule | binding to fibronectin-coated wells (human fibronectin) | inhibition of BCG attachment to fibronectin [1] | binding to fibronectin-coated wells (human fibronectin; biotinylated fusion proteins 0.5 μg and 2 μg, 25° C., 1 hour, FIG. 2)
β-galactosidase: Control recombinant β-galactosidase fusion protein produced in the pTrcHis vector | did not bind to fibronectin |  | 
FAP-A269-292: Synthesized peptide of amino acids 269-292 of FAP-A, a conserved fibronectin binding region (GNRQRWFVVWLGTSNDPVDKVAAK) |  | inhibit BCG attachment to fibronectin in an equivalent manner | 
B1 |  | inhibit BCG attachment to fibronectin in an equivalent manner | bound to wells coated with fibronectin
